Assay [1] addresses T1, his-tagged human CDH6 extracellular region protein (hCDH6 ECD-his) (human, UniProt P55285 19-615).
T1 construct: also called Human CDH6-his; hCDH6-his; not shown: his tag
T1 sequence: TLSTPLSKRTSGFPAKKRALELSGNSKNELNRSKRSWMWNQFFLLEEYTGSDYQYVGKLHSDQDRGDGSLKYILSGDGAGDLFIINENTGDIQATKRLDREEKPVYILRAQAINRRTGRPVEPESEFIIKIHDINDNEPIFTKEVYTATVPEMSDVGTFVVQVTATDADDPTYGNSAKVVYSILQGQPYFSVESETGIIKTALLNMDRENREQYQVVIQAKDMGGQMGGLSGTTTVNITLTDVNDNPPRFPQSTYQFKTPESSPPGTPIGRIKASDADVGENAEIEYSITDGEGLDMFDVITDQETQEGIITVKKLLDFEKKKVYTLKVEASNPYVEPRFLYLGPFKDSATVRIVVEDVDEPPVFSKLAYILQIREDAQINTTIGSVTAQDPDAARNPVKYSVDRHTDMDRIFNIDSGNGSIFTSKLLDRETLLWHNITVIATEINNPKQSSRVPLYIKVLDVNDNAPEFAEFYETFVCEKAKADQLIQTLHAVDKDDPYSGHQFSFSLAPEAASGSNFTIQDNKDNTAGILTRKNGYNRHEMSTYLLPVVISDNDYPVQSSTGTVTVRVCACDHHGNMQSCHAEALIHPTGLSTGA
Briefly: ELISA, coated antigen; ELISA, coated hCDH6-his; later run beside the hCDH6-14 humanized antibodies (Table 19).

Assay [2] has as its target T2, human CDH6 on tumor cells (OVCAR3 cells, PA-1 cells) (human, UniProt P55285 54-790).
T2 sequence: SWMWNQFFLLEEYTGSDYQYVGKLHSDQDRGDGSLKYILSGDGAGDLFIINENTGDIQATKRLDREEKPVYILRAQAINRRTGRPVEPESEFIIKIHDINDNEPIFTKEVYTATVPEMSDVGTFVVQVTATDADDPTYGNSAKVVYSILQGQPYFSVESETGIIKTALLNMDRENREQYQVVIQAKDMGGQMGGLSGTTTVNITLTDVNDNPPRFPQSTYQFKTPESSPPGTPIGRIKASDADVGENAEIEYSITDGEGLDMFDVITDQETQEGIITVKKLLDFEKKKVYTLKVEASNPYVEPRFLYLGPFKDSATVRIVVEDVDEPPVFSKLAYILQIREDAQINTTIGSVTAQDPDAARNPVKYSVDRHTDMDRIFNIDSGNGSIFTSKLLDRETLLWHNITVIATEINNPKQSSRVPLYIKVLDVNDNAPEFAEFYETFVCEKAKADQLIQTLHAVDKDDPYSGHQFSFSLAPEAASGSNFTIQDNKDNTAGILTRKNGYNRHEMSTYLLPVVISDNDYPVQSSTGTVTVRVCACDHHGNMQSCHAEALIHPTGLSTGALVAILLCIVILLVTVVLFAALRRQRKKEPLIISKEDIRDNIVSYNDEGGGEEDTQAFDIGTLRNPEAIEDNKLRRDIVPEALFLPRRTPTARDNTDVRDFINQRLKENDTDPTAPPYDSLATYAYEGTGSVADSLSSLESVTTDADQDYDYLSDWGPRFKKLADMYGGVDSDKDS
In words: FACS, OVCAR3 cells. (A flow cytometer gives signals particle by particle.)

For assay [3], the target named is T1, his-tagged human CDH6 extracellular …. Briefly: SPR Biacore, antibody captured on Protein A. How it is done: The affinity of the antibody for the antigen was determined by a multi-cycle kinetic method using a BIAcore 8K instrument. In each cycle, the antibody to be tested was captured using a Protein A chip (purchased from GE, Cat. No. 29-1275-56), and then the antigen human CDH6 protein (hCDH6-his, conventionally synthesized) was injected. The association and dissociation processes of the antibody with the antigen protein were recorded, and finally, the chip was regenerated using Glycine pH 1.5, wherein the mobile phase was HBS-EP+ (10 mM HEPES, 150 mM NaCl, 3 mM EDTA, 0.05% surfactant P20, and 1 mM Ca), the flow rate was 30 μL/min, the association time was 240 s, the dissociation time was 300 s, the regeneration time was 30 s, the detection temperature was 25° C., and the antigen concentration was 31.25-1000 nM. The data were analyzed using Biacore 8K analysis software (version No. 2.0) based on the 1:1 binding model to fit the antibody-antigen binding kinetic parameters, including the association rate constant ka, the dissociation rate constant kd, and the equilibrium dissociation constant KD. The affinity values of the control antibody DS-H01L02 were undetectable. Antibodies not shown in the table had undetectable affinity values.
Four hCDH6-1 humanized antibodies with fewer back mutations were selected, and the affinity for human CDH6 protein was further confirmed using Biacore.
(In general: Surface plasmon resonance follows binding to a sensor surface in real time, without labels.)

3 molecules from patent US20260234242A1 (HAINAN SIMCERE ZAIMING PHARMACEUTICAL, published 2026) can be followed below.

B1: CHI-CDH6-14 (antibody, human IgG1, kappa, V domains shown)
VH: QIQLQQSGPELVKPGTSVKISCKASGYTFTDNYINWVRQRPGQGLEWIGWIYPGTGNSYYNEKFKGKATLTVDTSSSTAYMQFSSLTSEDSAVYLCASSYGDSFDYWGQGTTLTVSS
VL: DIQMTQTTSSLSASLGNRVTISCRASQDIRNYLNWYQQKPDGTFKLLISYTSRLHSGVPSRFSGSGSGTDYSLTVSNLEPEDIATYYCQQYSQLPWTFGGGSRLEIKR
notes: also called CHI-hCDH6-14; CH1-CDH6-14
In general, EC50 refers to the concentration needed to bring the measured effect to its halfway point. For the molecule B1, the concentration giving a half-maximal response (EC50) in assay [1] was 0.034 nM.

B2: CHI-CDH6-1 (antibody, human IgG1, kappa, V domains shown)
VH: QVQLQQPGAELVRPGSSVKLSCKASGYTFTNYWMHWVKQRPIEGLEWIGDIDPSHSETHYTQKFKDKATLTVDKSSSTAYMQLSSLTSEDSAVYYCARGDLGRFDYWGQGTTLTVSS
VL: DIVLTQSPASLAVSLGQRATISCRASESVSIHGTHLMHWYQQKSGQPPKLLIYAASNLESGVPARFSGSGSETDFTFNIHPVEEEDAATYFCQQSFEDPWTFGGGTKLEIKR
notes: also called CHI-hCDH6-1; CH1-CDH6-1
What is called Kd is the equilibrium constant for the complex coming apart. By koff is commonly meant the first-order rate constant of dissociation. Usually kon stands for a measure of how fast the partners come together. A lower kon goes with slow association. Take B2: in assay [2], a half-maximal response (EC50) required 0.194 nM and the “Max MFI” value turned out to be 14900 MFI. In assay [3], this molecule returned a Kd of 11.4 nM, an off-rate (koff) of 0.00504 s⁻¹ and an on-rate (kon) of 442000 M⁻¹ s⁻¹.

B3: hCDH6-1-H2L3 (antibody, V domains shown)
VH: EVQLVQSGAEVKKPGSSVKVSCKASGYTFTNYWMHWVRQAPGQGLEWMGDIDPSHSETHYTQKFKDRVTITVDKSTSTAYMELSSLRSEDTAVYYCARGDLGRFDYWGQGTTVTVSS
VL: DIQMTQSPSSLSASVGDRVTITCRASESVSIHGTHLMHWYQQKPGKPPKLLIYAASNLESGVPSRFSGSGSETDFTFTISSLQPEDIATYYCQQSFEDPWTFGGGTKVEIK
notes: Humanized
As to B3, in assay [2], the concentration giving a half-maximal response (EC50) amounted to 0.17 nM and the “Max MFI” value amounted to 14800 MFI. In assay [3], this molecule registered a Kd of 18 nM, a koff of 0.00821 s⁻¹ and a kon of 457000 M⁻¹ s⁻¹.
